Experimental findings from PMC3103430, “RecA Proteins from Deinococcus geothermalis and Deinococcus murrayi - Cloning, Purification and Biochemical Characterisation” are described below.

The target of one data set is DmuRecA (Deinococcus murrayi DSM 11303, UniProt E7CG23 1-359). The experiment in a line: EMSA; 8-10 mM Mg2+ (most efficient), ATPgS + ATP, 37 C; 20 mM potassium phosphate pH 7.5, 0-10 mM MgCl2, 110 uM ATPgS + 300 uM ATP (ssDNA, 9 uM RecA) or 180 uM ATPgS + 500 uM ATP (dsDNA, 12 uM RecA), 30 min at 37 C (25-75 C series for ssDNA), 0.8% agarose gel. The following applies: protein: recombinant; tags: none (native start and stop codons, NdeI/XhoI in pET-30Ek/LIC); label: 5'-fluorescein.

In a further data set the target is DgeRecA (Deinococcus geothermalis DSM 11302, UniProt Q1IWF2 1-358). The description is as above. The following applies: protein: recombinant; tags: none (native start and stop codons, NdeI/HindIII in pET-30Ek/LIC); label: 5'-fluorescein.
DgeRecA, sequence (Q1IWF2 whole entry): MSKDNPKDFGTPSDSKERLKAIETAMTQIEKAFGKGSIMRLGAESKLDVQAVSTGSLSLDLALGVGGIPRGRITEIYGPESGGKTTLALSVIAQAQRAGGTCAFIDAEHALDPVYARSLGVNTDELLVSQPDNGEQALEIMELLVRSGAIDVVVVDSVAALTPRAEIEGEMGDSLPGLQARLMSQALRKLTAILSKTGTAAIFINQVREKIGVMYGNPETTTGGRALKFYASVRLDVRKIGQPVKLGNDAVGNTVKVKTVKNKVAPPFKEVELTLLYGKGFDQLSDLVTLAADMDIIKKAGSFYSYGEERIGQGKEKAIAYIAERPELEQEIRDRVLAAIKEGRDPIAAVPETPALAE

Consider TTTTTTTTTTTTTTTTTTTTTTTTTTTTTTTTTTT (ssDNA) [oligo(dT)35], for which the binding result in the data set with DmuRecA and with DgeRecA was “binds” each time.
